# In the supplement of paper PMC9112550, “Optimization of the antimicrobial peptide Bac7 by deep mutational scanning” (BMC Biology, 2022):
# System: Escherichia coli TOP10
# Test: shrunken log2 fold change of peptide-encoding DNA abundance (4.5 h post-induction vs induction); higher = less antimicrobial activity (less host growth inhibition)
# Details: time post-induction: 4.5 h; library: site-saturation at positions 5, 18, 19, 20
# 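Note: peptides expressed intracellularly from a pBAD plasmid library in pooled LB shake-flask culture, induced with 0.3% L-arabinose, DNA abundance read by NGS, three biological replicates, DESeq2 with apeglm shrinkage.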
row,Sequence,shrunken log2 fold change
1,RRIRKRPPRLPRPRPRPFFKPRP,0.0178
2,RRIRMRPPRLPRPRPRPIDRPRP,-0.0322
3,RRIRDRPPRLPRPRPRPQKPPRP,-0.00349
4,RRIRPRPPRLPRPRPRPGPDPRP,0.28
5,RRIRPRPPRLPRPRPRPLHAPRP,0.282
6,RRIRTRPPRLPRPRPRPKWTPRP,0.0189
7,RRIRPRPPRLPRPRPRPFRMPRP,-0.134
8,RRIRMRPPRLPRPRPRPTAEPRP,2.75
9,RRIRPRPPRLPRPRPRPSFRPRP,-0.142
10,RRIRLRPPRLPRPRPRPNYEPRP,-0.416
11,RRIRARPPRLPRPRPRPSKPPRP,-0.281
12,RRIRLRPPRLPRPRPRPNQKPRP,-0.0744
13,RRIRIRPPRLPRPRPRPETTPRP,-0.0691
14,RRIRNRPPRLPRPRPRPTWAPRP,0.374
15,RRIRGRPPRLPRPRPRPIVGPRP,0.00341
16,RRIRCRPPRLPRPRPRPIMEPRP,-0.231
17,RRIRFRPPRLPRPRPRPSVIPRP,-0.339
18,RRIRKRPPRLPRPRPRPQRWPRP,0.0222
19,RRIRYRPPRLPRPRPRPLRHPRP,-0.177
20,RRIRGRPPRLPRPRPRPSMWPRP,0.291

row,Sequence,shrunken log2 fold change
1,RRIRLRPPRLPRPRPRPIINPRP,-0.448
2,RRIRPRPPRLPRPRPRPGIVPRP,-0.0451
3,RRIRKRPPRLPRPRPRPAPIPRP,0.716
4,RRIRPRPPRLPRPRPRPFMCPRP,-0.164
5,RRIRHRPPRLPRPRPRPTRNPRP,-0.0346
6,RRIRQRPPRLPRPRPRPCFCPRP,-0.0837
7,RRIRYRPPRLPRPRPRPCMPPRP,-0.123
8,RRIRHRPPRLPRPRPRPKMEPRP,-0.00674
9,RRIRTRPPRLPRPRPRPVYVPRP,-0.62
10,RRIRMRPPRLPRPRPRPVYGPRP,-0.294
11,RRIRPRPPRLPRPRPRPRVGPRP,0.543
12,RRIRHRPPRLPRPRPRPMWPPRP,0.0906
13,RRIRLRPPRLPRPRPRPMWHPRP,0.203
14,RRIRNRPPRLPRPRPRPYNWPRP,-0.161
15,RRIRRRPPRLPRPRPRPVASPRP,0.0932
16,RRIRKRPPRLPRPRPRPDDFPRP,-0.00262
17,RRIRSRPPRLPRPRPRPCAVPRP,-0.255
18,RRIRTRPPRLPRPRPRPFDTPRP,-0.346
19,RRIRQRPPRLPRPRPRPTDVPRP,-0.194
20,RRIRGRPPRLPRPRPRPFGLPRP,-0.0119

row,Sequence,shrunken log2 fold change
1,RRIRLRPPRLPRPRPRPTAQPRP,0.104
2,RRIRCRPPRLPRPRPRPFLPPRP,-0.265
3,RRIRRRPPRLPRPRPRPTYYPRP,-0.0395
4,RRIRERPPRLPRPRPRPMRLPRP,0.472
5,RRIRLRPPRLPRPRPRPYWFPRP,-0.758
6,RRIRIRPPRLPRPRPRPSLKPRP,-0.154
7,RRIRWRPPRLPRPRPRPIKEPRP,0.0169
8,RRIRDRPPRLPRPRPRPDDHPRP,0.023
9,RRIRVRPPRLPRPRPRPSQQPRP,-0.116
10,RRIRTRPPRLPRPRPRPQNRPRP,-0.199
11,RRIRKRPPRLPRPRPRPWTAPRP,0.00666
12,RRIRTRPPRLPRPRPRPQYKPRP,-1.04
13,RRIRGRPPRLPRPRPRPHSDPRP,0.204
14,RRIRWRPPRLPRPRPRPQFAPRP,0.189
15,RRIRMRPPRLPRPRPRPLVHPRP,0.035
16,RRIRLRPPRLPRPRPRPVQIPRP,0.364
17,RRIRWRPPRLPRPRPRPTYCPRP,-0.126
18,RRIRYRPPRLPRPRPRPGPSPRP,-0.125
19,RRIRLRPPRLPRPRPRPYPEPRP,-0.201
20,RRIRTRPPRLPRPRPRPNMNPRP,-0.864
